The values that follow come from patent publication US20150044666A1.

Usually Kd stands for the free concentration of one partner at which half of the binding sites on the other are occupied at equilibrium, for simple one-to-one binding. By koff is commonly meant the first-order rate constant of dissociation. In general, kon refers to the rate constant with which the complex forms.

Experiment [1] has as its target Recombinant HIV-1 p24 (HIV-1) (UniProt P04591). Briefly: forward two-site immuno-PCR; p24 0.1 pg/mL; reporter MAb-DNA 2.5 pM.
The target is the same in experiment [2]. As to the kind of experiment: forward two-site immuno-PCR; p24 0.1 pg/mL; reporter MAb-DNA 15 pM.
The target is the same in experiment [3]. As to the kind of experiment: method not stated; rate and equilibrium constants listed for commercially available anti-HIV p24 antibodies.
The target is the same in experiment [4]. Briefly: forward two-site immuno-PCR; p24 0.1 pg/mL; reporter MAb-DNA 50 pM.
For experiment [5] the target is unchanged. As to the kind of experiment: forward two-site immuno-PCR; p24 0.1 pg/mL; reporter MAb-DNA 10 pM.
Experiment [6] has the same target. Briefly: forward two-site immuno-PCR, 10 pM reporter MAb-DNA, capture MAb 739P on particles; p24 at 1 pg/mL.
The target is the same in experiment [7]. As to the kind of experiment: forward two-site immuno-PCR; p24 0.1 pg/mL; reporter MAb-DNA 20 pM.
Experiment [8] shares this target. As to the kind of experiment: forward two-site immuno-PCR; p24 0.1 pg/mL; reporter MAb-DNA 5 pM.
The target is the same in experiment [9]. As to the kind of experiment: forward two-site immuno-PCR, 10 pM reporter MAb-DNA, capture MAb 739P on particles; p24 at 10 pg/mL.
The target is the same in experiment [10]. As to the kind of experiment: forward two-site immuno-PCR, 10 pM reporter MAb-DNA, capture MAb 739P on particles; p24 at 0.1 pg/mL.
Experiment [11] shares this target. As to the kind of experiment: forward two-site immuno-PCR, 10 pM reporter MAb-DNA, capture MAb 739P on particles; p24 at 0.01 pg/mL.

Regarding “NIH AIDS Research & Reference Reagent Program HIV-1 183-H12-5C (antibody)”, the Average ΔThreshold Cycle (ΔCp) over blank in [1] was found to be 0.3 cycles; in experiment [2], 2 cycles; in experiment [4], 0.9 cycles; in [5], 2.2 cycles; in [7] it was 1.5 cycles; in experiment [8], 2.6 cycles. In addition, the Kd in experiment [3] was determined as 3.93 nM. The koff in [3] was 5.9e-05 s⁻¹. Also, in experiment [3], the kon came to 15000 M⁻¹ s⁻¹. In addition, the Threshold Cycle (Ct) came to 20.6 cycles in [6], 17.7 cycles in experiment [9], 23.8 cycles in experiment [10] and 26.6 cycles in experiment [11].
